Assays:
Cren7 [1] = target: T1, Cren7 (Sulfolobus solfataricus, UniProt Q97ZE3 1-60); test: EMSA; 4 mM Mg2+, 25 C; EMSA: 50 mM Tris-HCl pH 8.0, 2 mM beta-mercaptoethanol, 0.1 mg/ml BSA, 4 mM MgCl2, 5% glycerol, 2 nM probe, 10 min at 25 C (room temperature), 5% PAGE in 0.1x TBE; Tm: 10 mM potassium phosphate pH 7.0, 20-90 C; conditions: protein: recombinant; label: 32P on D30; blunt
T1 sequence: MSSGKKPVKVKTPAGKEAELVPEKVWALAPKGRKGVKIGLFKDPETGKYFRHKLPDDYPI

Sso7d = target: T2, Sso7d (Sulfolobus solfataricus, UniProt P39476 1-64); test: EMSA; apparent Kd; 4 mM Mg2+, 25 C; EMSA: 50 mM Tris-HCl pH 8.0, 2 mM beta-mercaptoethanol, 0.1 mg/ml BSA, 4 mM MgCl2, 5% glycerol, 2 nM probe, 10 min at 25 C (room temperature), 5% PAGE in 0.1x TBE; Tm: 10 mM potassium phosphate pH 7.0, 20-90 C; conditions: protein: recombinant, blunt
T2 sequence: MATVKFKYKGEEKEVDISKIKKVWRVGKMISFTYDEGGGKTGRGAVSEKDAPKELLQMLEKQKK

Cren7 [2] = target: T1, Cren7; test: thermal denaturation (A260); EMSA: 50 mM Tris-HCl pH 8.0, 2 mM beta-mercaptoethanol, 0.1 mg/ml BSA, 4 mM MgCl2, 5% glycerol, 2 nM probe, 10 min at 25 C (room temperature), 5% PAGE in 0.1x TBE; Tm: 10 mM potassium phosphate pH 7.0, 20-90 C; conditions: protein: recombinant; blunt

B1: 30-bp dsDNA (D30/Com30) (dsDNA)
DNA 1: TGCTTCCTTCAATGTGCTGGGATCCTACAA
DNA 2: TTGTAGGATCCCAGCACATTGAAGGAAGCA
binding result (Cren7 [1]): binds
Kd (Sso7d; label: 32P on D30): 150 nM

B2: 30-bp RNA:DNA hybrid (R30/Com30) (DNA:RNA)
RNA: UGCUUCCUUCAAUGUGCUGGGAUCCUACAA
DNA: B1 DNA 2
modifications: R30 strand is RNA
Kd (Sso7d; label: 32P on R30): 500 nM

B3: 15-bp dsDNA (D15/Com15) (dsDNA)
DNA 1: TGCATCCTTCAAGAC
DNA 2: GTCTTGAAGGATGCA
binding result (Cren7 [2]): binds

Source: publication PMC3783171, “Sulfolobus chromatin proteins modulate strand displacement by DNA polymerase B1”
